Source: US8647863

Tested on: ParA resolvase
Experiment: cell_activity
Details: complete recombination of pHCNparA and pSIPHCNparA into minicircle and miniplasmid 30 min after arabinose induction in E. coli; about 50% when resolvase was …

For “ParA resolution sites res1/res2 (in plasmids pHCNparA, pSIPHCNparA, pSIPresHCN)”, the activity was 100%.
